Each block holds one molecule with its values, some of them ahead of it.
Key:
[1] = target: Flag-IL28A-D0 (human) (UniProt Q8IZJ0); experiment: SDS-PAGE and Western blot (band of about 70 kDa)
[2] = target: the molecule itself; experiment: SDS-PAGE and Western blot (tetramer and monomer bands)

stoichiometry N [1]: 4
Molecule: Flag-IL28A-D0 (from UniProt Q8IZJ0 26-200) (natural protein)

B1: Interferon lambda-2 (IL28A), wild type (natural protein, human, UniProt Q8IZJ0 26-200, looked up)
chain: VPVARLHGALPDARGCHIAQFKSLSPQELQAFKRAKDALEESLLLKDCRCHSRLFPRTWDLRQLQVRERPMALEAELALTLKVLEATADTDPALVDVLDQPLHTLHHILSQFRACIQPQPTAGPRTRGRLHHWLYRLQEAPKKESPGCLEASVTFNLFRLLTRDLNCVASGDLCV
notes: also called WT IL28A; IL28A overexpression construct
stoichiometry N [2]: 4

Source: publication PMC7090004, “IL28A protein homotetramer structure is required for autolysosomal degradation of HCV-NS5A in vitro” (Cell Death & Disease, 2020)
